From patent publication US20090304651A1 (published 2009)

Legend:
[1] = target: T1, recombinant human IGF-II (Insulin-like Growth Factor II) (human, UniProt P01344 25-91, biotinylated (Biotinyl-IGF-II, GroPep) where immobilised in SPR, site not stated; not biotinylated in ITC and as SPR analyte); experiment: SPR, IGF-II immobilised, major kinetic parameter ka1
T1 construct: also called IGF2; IGF-2
Method: (§1) Kinetic experiments consisted of a two minute injection of analyte followed by a 100 s dissociation phase in running buffer, after which the binding surface was regenerated with a 2 minute injection of 2 M MgCl₂. A blank flow cell was used for in-line reference subtraction of changes due to differences in refractive index of running buffer versus sample and a buffer-only injection was used to subtract instrument noise and drift. Injections were performed in duplicate for each concentration and in a randomised order. Kinetic parameters were determined by global fitting of sensorgrams to a two-state (conformational change) binding model using BIAevaluation software version 4.0.1. In all cases the minor component made an insignificant contribution to the overall affinity and as such only the kinetic parameters of the major binding component were used. For each interaction the dissociation affinity constant (KD) was also calculated by fitting of the response of each concentration at equilibrium to a steady-state affinity model using BIAevaluation. […]
(§2) The affinity of versions of Fc-tagged domain 11 fusion proteins, and domain 11 constructs, for IGF-II were compared using surface plasmon resonance (BIAcore 3000). […] The Fc-tagged domain 11 kinetic data performed in triplicate generated sensorgrams that were analyzed using a bivalent analyte model.

[2] = target: T1, recombinant human IGF-II (Insulin-like …); experiment: SPR, IGF-II immobilised, major kinetic parameter kd1
Method: as §1, §2

[3] = target: T1, recombinant human IGF-II (Insulin-like …); experiment: SPR, IGF-II immobilised, steady state
Method: as §1, with “Kinetic analysis by Surface Plasmon Resonance (SPR) was conducted on a BIAcore 3000 biosensor (BIAcore, Uppsala, Sweden) at 25° C. in HBS-EP (10 mM HEPES, pH 7.4, 150 mM NaCl, 3 mM EDTA, 0.005% surfactant P20) at a flow rate of 40 μl/min. […] Kinetic experiments” for “Kinetic experiments”

[4] = target: T1, recombinant human IGF-II (Insulin-like …); experiment: SPR, IGF-II immobilised, steady state; remark: listed apart in the source
Method: (§3) Kinetic analysis by Surface Plasmon Resonance (SPR) was conducted on a BIAcore 3000 biosensor (BIAcore, Uppsala, Sweden) at 25° C. in HBS-EP (10 mM HEPES, pH 7.4, 150 mM NaCl, 3 mM EDTA, 0.005% surfactant P20) at a flow rate of 40 μl/min. […] Kinetic experiments consisted of a two minute injection of analyte followed by a 100 s dissociation phase in running buffer, after which the binding surface was regenerated with a 2 minute injection of 2 M MgCl₂. A blank flow cell was used for in-line reference subtraction of changes due to differences in refractive index of running buffer versus sample and a buffer-only injection was used to subtract instrument noise and drift. Injections were performed in duplicate for each concentration and in a randomised order. Kinetic parameters were determined by global fitting of sensorgrams to a two-state (conformational change) binding model using BIAevaluation software version 4.0.1. In all cases the minor component made an insignificant contribution to the overall affinity and as such only the kinetic parameters of the major binding component were used. For each interaction the dissociation affinity constant (KD) was also calculated by fitting of the response of each concentration at equilibrium to a steady-state affinity model using BIAevaluation. In order to investigate the influence of ionic strength, kinetic experiments were conducted in HBS-EP running buffers containing the desired NaCl concentration. In each case, analyte samples were made up in the appropriate running buffer prior to injection.
(§4) Following purification, the binding of each mutant construct to IGF2 was assessed by SPR and compared to the wild type domain 11. Sensorgrams were generated using biotinylated IGF2 immobilised to the cell surface and mutant domain 11 proteins as the free analyte (FIG. 4).

[5] = target: T1, recombinant human IGF-II (Insulin-like …); experiment: SPR, IGF-II immobilised, kinetic fit
Method: as §3, §4

[6] = target: T1, recombinant human IGF-II (Insulin-like …); experiment: SPR, IGF-II immobilised, kinetic fit; remark: listed apart in the source
Method: as §3

[7] = target: T1, recombinant human IGF-II (Insulin-like …); experiment: SPR, IGF-II immobilised, major kinetic parameters
Method: as §1, §2

[8] = target: T1, recombinant human IGF-II (Insulin-like …); experiment: SPR, steady-state KD relative to wild type
Method: […]. Values are the mean±S.E.M. of three separate experiments.
as §3
Following purification, the binding of each mutant construct to IGF2 was assessed by SPR and compared to the wild type domain 11.

[9] = target: T1, recombinant human IGF-II (Insulin-like …); experiment: SPR

T1 sequence (P01344 25-91 limits assumed): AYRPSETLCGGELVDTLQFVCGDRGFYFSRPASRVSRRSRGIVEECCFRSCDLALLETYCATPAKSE

B1: wild type IGF2R domain 11 (amino acids 1511-1650) with C-terminal His6 tag, from Pichia pastoris (receptor)
chain: NEHDDCQVTNPSTGHLFDLSSLSGRAGFTAAYSEKGLVYMSICGENENCPPGVGACFGQTRISVGKANKRLRYVDQVLQLVYKDGSPCPSKSGLSYKSVISFVCRPEAGPTNRPMLISLDKQTCTLFFSWHTPLACEQATHHHHHH
notes: also called WT; wild type domain 11
B1 gave a kon [1] of 662000 M⁻¹ s⁻¹, a koff [2] of 0.0787 s⁻¹ and a Kd [3] of 103 nM. For the same binder, the Kd [4] was 103 nM, the Kd [5] was 102 nM and the koff [5] was 0.053 s⁻¹. The kon [5] was 525000 M⁻¹ s⁻¹, the Kd [6] was 102 nM and the koff [6] was 0.053 s⁻¹. For the same binder, the kon [6] was 525000 M⁻¹ s⁻¹, the Kd [7] was 119 nM and the “Relative Affinity” value [8] was 1 fold (wild type = 1.00).

B2: IGF2R domain 11 E1544K (amino acids 1511-1650, C-terminal His6 tag, from Pichia pastoris) (receptor)
chain: NEHDDCQVTNPSTGHLFDLSSLSGRAGFTAAYSKKGLVYMSICGENENCPPGVGACFGQTRISVGKANKRLRYVDQVLQLVYKDGSPCPSKSGLSYKSVISFVCRPEAGPTNRPMLISLDKQTCTLFFSWHTPLACEQATHHHHHH
notes: also called enhanced mutant
With B2 the kon [1] was 2.02e+06 M⁻¹ s⁻¹, the koff [2] was 0.0406 s⁻¹ and the Kd [7] was 20.5 nM.

B3: IGF2R domain 11 E1544A (amino acids 1511-1650, C-terminal His6 tag, from Pichia pastoris) (receptor)
chain: NEHDDCQVTNPSTGHLFDLSSLSGRAGFTAAYSAKGLVYMSICGENENCPPGVGACFGQTRISVGKANKRLRYVDQVLQLVYKDGSPCPSKSGLSYKSVISFVCRPEAGPTNRPMLISLDKQTCTLFFSWHTPLACEQATHHHHHH
B3 was tested, and the “relative affinity increase over wild type” value [9] was about 2.5 fold, the Kd [4] was 37 nM and the Kd [5] was 36 nM. The koff [5] was 0.033 s⁻¹, the kon [5] was 934000 M⁻¹ s⁻¹ and the “Relative Affinity” value [8] was 2.79 fold (wild type = 1.00).
